The record followed here is PMC8891275, “Crosstalk between CRISPR-Cas9 and the human transcriptome”.

For data set [1], the target named is T1, SpCas9-NLS (CAS9PROT, Sigma-Aldrich) (UniProt Q99ZW2 1-1368). Kind of data set: competition; does not outcompete 20 nM labeled CDIP1 RNA; Cas9 640 nM; 1:1 to 1:32 to Cas9; 20 mM Tris-HCl pH 7.4, 150 mM KCl, 5 mM MgCl2, 5 mM EDTA, 1 mM DTT, 0.1% BSA, 5% glycerol, 0.01% Tween 20, 50 ug/mL heparin, 200 U/mL Superase-In; 30 min at room temperature; gel at 4 C. The conditions noted are these: protein: commercial; tags: NLS.
T1 sequence (Q99ZW2 whole entry): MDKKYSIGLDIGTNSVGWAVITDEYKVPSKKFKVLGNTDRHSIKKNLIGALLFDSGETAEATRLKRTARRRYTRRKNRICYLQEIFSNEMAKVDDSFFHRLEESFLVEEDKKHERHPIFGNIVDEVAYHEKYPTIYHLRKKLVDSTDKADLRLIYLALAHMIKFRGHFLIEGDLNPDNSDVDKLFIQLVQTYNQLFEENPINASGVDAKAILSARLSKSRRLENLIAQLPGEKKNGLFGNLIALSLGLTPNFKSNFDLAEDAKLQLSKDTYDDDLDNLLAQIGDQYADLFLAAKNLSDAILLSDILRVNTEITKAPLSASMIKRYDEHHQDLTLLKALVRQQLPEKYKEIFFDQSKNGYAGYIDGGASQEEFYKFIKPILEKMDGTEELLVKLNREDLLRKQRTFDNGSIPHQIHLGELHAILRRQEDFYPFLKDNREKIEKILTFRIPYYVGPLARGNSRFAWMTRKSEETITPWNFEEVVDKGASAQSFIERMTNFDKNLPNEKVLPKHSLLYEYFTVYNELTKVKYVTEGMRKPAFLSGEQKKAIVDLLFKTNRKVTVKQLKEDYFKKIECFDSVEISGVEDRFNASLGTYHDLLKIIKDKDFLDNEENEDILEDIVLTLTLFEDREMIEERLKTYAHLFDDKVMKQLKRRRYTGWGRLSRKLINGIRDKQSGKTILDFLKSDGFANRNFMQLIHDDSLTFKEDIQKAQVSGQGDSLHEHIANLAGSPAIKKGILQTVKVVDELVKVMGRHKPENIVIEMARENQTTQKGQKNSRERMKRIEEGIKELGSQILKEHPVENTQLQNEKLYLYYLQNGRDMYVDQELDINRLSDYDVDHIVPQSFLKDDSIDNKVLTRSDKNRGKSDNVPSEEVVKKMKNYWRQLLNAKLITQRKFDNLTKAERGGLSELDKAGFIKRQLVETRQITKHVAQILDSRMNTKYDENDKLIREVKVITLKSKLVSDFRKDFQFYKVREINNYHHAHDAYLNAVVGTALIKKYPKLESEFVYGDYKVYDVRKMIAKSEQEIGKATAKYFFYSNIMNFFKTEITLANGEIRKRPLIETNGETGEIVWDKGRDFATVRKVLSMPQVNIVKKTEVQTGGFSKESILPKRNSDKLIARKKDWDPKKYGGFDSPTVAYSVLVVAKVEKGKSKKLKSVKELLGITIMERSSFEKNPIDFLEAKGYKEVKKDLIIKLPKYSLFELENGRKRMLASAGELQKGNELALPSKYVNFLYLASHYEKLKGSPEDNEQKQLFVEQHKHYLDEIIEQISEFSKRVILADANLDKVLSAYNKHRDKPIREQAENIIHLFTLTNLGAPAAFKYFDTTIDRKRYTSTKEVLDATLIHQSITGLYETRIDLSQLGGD

For data set [2], the target named is T1, SpCas9-NLS (CAS9PROT, Sigma-Aldrich). Kind of data set: EMSA; apparent Kd, high nanomolar; 20 nM RNA, Cas9 0-1000 nM; no gRNA; 20 mM Tris-HCl pH 7.4, 150 mM KCl, 5 mM MgCl2, 5 mM EDTA, 1 mM DTT, 0.1% BSA, 5% glycerol, 0.01% Tween 20, 50 ug/mL heparin, 200 U/mL Superase-In; 30 min at room temperature; gel at 4 C. Particulars: protein: commercial; tags: NLS; label: 5' IRDye 800CW; GU-loop upstream of 5-nt stem. For orientation: A gel shift assay detects complexes by their altered migration in electrophoresis.

For data set [3] the target is unchanged. The experiment in a line: competition; outcompetes 20 nM labeled CDIP1 RNA; Cas9 640 nM; 1:1 to 1:32 to Cas9; 20 mM Tris-HCl pH 7.4, 150 mM KCl, 5 mM MgCl2, 5 mM EDTA, 1 mM DTT, 0.1% BSA, 5% glycerol, 0.01% Tween 20, 50 ug/mL heparin, 200 U/mL Superase-In; 30 min at room temperature; gel at 4 C. The conditions noted are these: protein: commercial; tags: NLS; guide RNA hairpins.

B1: non-specific (N.S.) RNA, unlabeled (ssRNA)
RNA: CUAUGCGGCAUCAGAGCAGAUUGUACUGAGAGUGCACCAUAUGCGGUGUGAAAUACCGCACAGAUGCGUAAGGAGAAAAUACCGCAUCAGGCGCCAUUCGCCAUUCAGGCUGCGCAACUGUUGG
As to B1, the binding result in data set [1] is “no binding”.

B2: CDIP1 5' UTR RNA (Fig. 2) (structured_RNA)
RNA: UACCCGCCUCCUUGUGACAGAAGUGCGACUGCCAGCUGCCGAGGCGUUCGGUCCUGCUGUUGCGGCCGCUGCCCCAGGGCUGCGGGGACGGUGAGUCGACUGGA
In the case of B2, in data set [2], the Kd is over 100 nM.

B3: Cas9 gRNA (structured_RNA)
RNA: AUUAAUCGGUGGGAGUAUUCGUUUAAGAGCUAUGCUGGAAACAGCAUAGCAAGUUUAAAUAAGGCUAGUCCGUUAUCAACUUGAAAAAGUGGCACCGAGUCGGUGCU
Regarding B3, in data set [3], the binding result was “binds”.
